Among the data in patent publication US20240252617A1 are Kd values, retold here.

pKd: −log10 of the molar value. Where only a bound is given, the exact number is not on record here.

The assay addresses monomeric SARS-CoV-2 receptor binding domain (RBD) (SARS-CoV-2) (UniProt P0DTC2).

As a reminder, the pKd is −log10 of the Kd, conventionally taken in molar units. In turn, DH1047 antigen binding fragment (Fab) showed a negative logarithm of the Kd (pKd) greater than 10.70.
